# Laboratory results published in patent EP4477673A1, “IMMUNOCONJUGATE AND USE THEREOF” (priority 2022, dated 2023).
# Like-named read-outs stand apart in the source and are kept apart here.
# B1: A6_hIgG4 (antibody, V domains shown)
# VH: EVQLVESGGGLVQAGGSLRLSCAVSGRTFSSAAMGWFRQAPGKEREFVAAISWSFGSTYYADSVKGRFTISRDNAKNTVYLQMNSLKPEDTAVYYCAADPSIETMGGGWDYWGQGTQVTVSS
# B2: A-PC (Fc fusion)
# chain (part 1 of 2): EVQLVESGGGLVQPGGSLRLSCAASGLTFSDYSMSWYRQAPGKGRELVAIISGSGVITHYVDSVKGRFTISRDNAKNTLYLQMRSLRAEDTAVYYCRAVSDWEDYWGQGTQVTVSS
# chain (part 2 of 2): GGGGSGGGGSGGGGSAPASSSTKKTQLQLEHLLLDLQMILQGISNYKNPKLTRMLTAKFYMPKKATELKHLQCLEEELKPLEEVLQGAQSKNFHLRPRDLISNINVIVLELKGSETTFMCEYADETATIVEFLNRWITFAQSIISTLT
# chain: EVQLVESGGGLVQPGGSLRLSCAASGLTFSDYSMSWYRQAPGKGRELVAIISGSGVITHYVDSVKGRFTISRDNAKNTLYLQMRSLRAEDTAVYYCRAVSDWEDYWGQGTQVTVSS
# notes: also called positive control molecule A-PC; PD-1-IL-2v; not shown: IgG1 hinge (C220S) + Fc Knob chain (L234A, L235A, S354C, T366W, EU); D356/L358 or E356/M358 ver; IgG1 hinge (C220S) + Fc Hole chain (L234A, L235A, Y349C, T366S, L368A, Y407V; may have H435R, Y436F; EU)
# Columns and labels:
# [1] = biological target: T1, human PD-1 (human, UniProt Q15116 25-288); assay: cell-based or functional assay
# T1 sequence (Q15116 25-288 limits assumed): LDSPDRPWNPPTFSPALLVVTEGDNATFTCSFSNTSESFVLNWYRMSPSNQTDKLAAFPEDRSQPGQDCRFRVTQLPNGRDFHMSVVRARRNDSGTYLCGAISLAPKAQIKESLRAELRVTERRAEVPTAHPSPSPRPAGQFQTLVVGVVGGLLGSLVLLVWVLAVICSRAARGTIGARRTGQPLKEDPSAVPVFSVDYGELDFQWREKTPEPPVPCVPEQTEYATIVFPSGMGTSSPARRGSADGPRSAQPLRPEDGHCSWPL
# [2] = biological target: T2, Human PD-1 protein (His Tag) (human, UniProt Q15116 25-167); assay: ELISA, plate coated with human PD-1 (his tag), anti-human IgG4 Fc-HRP
# T2 construct: also called PD1-H5221; PD-1 antigen; not shown: His tag
# T2 sequence (Q15116 25-167): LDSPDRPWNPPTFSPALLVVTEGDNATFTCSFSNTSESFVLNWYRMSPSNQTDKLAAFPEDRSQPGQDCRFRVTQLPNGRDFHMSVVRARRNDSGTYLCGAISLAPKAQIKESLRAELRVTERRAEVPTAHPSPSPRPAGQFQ
# [3] = biological target: T1, human PD-1; assay: flow cytometry on Jurkat cells overexpressing human PD-1
# [4] = biological target: T3, human IL-2Rα receptor protein (Sino Biological, 10165-H08H) (human, UniProt P01589 22-213); assay: SPR Biacore 8K, fusion protein captured by anti-human IgG (Fc), IL-2Rα as analyte
# T3 construct: also called CD25
# T3 sequence (looked up): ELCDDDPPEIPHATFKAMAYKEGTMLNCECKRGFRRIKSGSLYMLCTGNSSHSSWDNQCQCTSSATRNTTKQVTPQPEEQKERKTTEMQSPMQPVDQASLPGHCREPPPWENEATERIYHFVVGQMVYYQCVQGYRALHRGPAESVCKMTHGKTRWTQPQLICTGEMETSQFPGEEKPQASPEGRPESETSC
# [5] = biological target: T4, human IL-2Rβ/γ receptor heterodimer protein (Acrosystem, ILG-H5283) (human, UniProt P14784 27-239; P31785 23-262, limits assumed); assay: SPR Biacore 8K, fusion protein captured by anti-human IgG (Fc), human IL-2Rβ/γ heterodimer as analyte
# T4 sequence (looked up) 1: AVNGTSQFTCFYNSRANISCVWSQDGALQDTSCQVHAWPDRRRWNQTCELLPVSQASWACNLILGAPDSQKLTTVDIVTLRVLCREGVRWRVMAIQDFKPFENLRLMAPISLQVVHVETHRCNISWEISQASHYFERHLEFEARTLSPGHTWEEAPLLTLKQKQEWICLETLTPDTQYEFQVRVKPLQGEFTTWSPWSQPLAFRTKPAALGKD
# T4 sequence (looked up) 2: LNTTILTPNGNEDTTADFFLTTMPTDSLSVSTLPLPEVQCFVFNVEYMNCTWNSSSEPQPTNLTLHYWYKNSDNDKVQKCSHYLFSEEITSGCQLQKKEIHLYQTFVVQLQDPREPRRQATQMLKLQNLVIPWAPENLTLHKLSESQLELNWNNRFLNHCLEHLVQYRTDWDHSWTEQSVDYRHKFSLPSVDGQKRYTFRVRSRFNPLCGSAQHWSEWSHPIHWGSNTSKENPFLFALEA
# [6] = biological target: T1, human PD-1; assay: cell-based or functional assay; remark: listed apart in the source
# [7] = biological target: T5, IL-2Rβ/γ on M07e cells (human, UniProt P14784 27-551; P31785 23-369); assay: cell-based or functional assay
# T5 sequence (looked up) 1: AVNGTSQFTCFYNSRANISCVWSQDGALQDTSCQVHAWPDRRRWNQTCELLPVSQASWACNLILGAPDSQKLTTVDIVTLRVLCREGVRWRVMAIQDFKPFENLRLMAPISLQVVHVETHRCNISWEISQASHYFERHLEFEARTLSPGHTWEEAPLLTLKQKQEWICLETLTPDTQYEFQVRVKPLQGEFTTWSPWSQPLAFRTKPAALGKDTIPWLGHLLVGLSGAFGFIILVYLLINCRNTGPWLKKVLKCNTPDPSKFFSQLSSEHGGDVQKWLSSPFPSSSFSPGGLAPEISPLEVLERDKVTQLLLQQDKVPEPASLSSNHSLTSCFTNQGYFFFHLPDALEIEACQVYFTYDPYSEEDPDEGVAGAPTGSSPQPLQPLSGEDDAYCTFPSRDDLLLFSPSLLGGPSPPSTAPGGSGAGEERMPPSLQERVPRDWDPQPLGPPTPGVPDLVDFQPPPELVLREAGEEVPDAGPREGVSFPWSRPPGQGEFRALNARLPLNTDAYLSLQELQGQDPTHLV
# T5 sequence (looked up) 2: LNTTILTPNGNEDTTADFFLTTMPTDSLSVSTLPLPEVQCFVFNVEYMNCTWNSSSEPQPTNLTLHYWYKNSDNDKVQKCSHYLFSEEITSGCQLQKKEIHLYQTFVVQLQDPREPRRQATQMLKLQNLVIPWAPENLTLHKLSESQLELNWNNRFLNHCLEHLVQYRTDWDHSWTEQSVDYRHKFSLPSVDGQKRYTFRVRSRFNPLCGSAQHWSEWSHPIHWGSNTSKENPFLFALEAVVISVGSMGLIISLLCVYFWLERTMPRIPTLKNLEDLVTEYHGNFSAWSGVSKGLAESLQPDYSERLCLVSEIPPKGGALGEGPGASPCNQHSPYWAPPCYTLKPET
# [8] = biological target: T1, human PD-1; assay: cell-based or functional assay; remark: listed apart in the source
# [9] = biological target: Human PD-1 antigen protein (Sino Biological, 10377-H08H) (human, UniProt Q15116 25-167); assay: SPR Biacore 8K, fusion protein captured by anti-human IgG (Fc), human PD-1 as analyte
# Sequence of Human PD-1 antigen protein (Sino Biological, 10377-H08H) (Q15116 25-167 limits assumed): as the sequence (Q15116 25-167) above
# [10] = biological target: T1, human PD-1; assay: cell-based or functional assay; remark: listed apart in the source
binder,measurement,setting,value
B1,"IC50, PD-1/PD-L1 NFAT reporter gene system",[1],1.35 nM
same,EC50,[2],0.0861 nM
same,EC50,[3],1.09 nM
B2,binding result,[4],no binding
same,Kd,[5],0.253 nM
same,koff,[5],2.23e-05 s⁻¹
same,kon,[5],88100 M⁻¹ s⁻¹
same,M07e-hPD-1 cell proliferation ratio (%) at 0.0001 nM,[6],2.4%
same,M07e-hPD-1 cell proliferation ratio (%) at 0.001 nM,[6],4.9%
same,M07e-hPD-1 cell proliferation ratio (%) at 0.01 nM,[6],33.7%
same,M07e-hPD-1 cell proliferation ratio (%) at 0.1 nM,[6],79%
same,M07e-hPD-1 cell proliferation ratio (%) at 1 nM,[6],95.9%
same,M07e-hPD-1 cell proliferation ratio (%) at 10 nM,[6],113%
same,M07e-hPD-1 cell proliferation ratio (%) at 100 nM,[6],112%
same,M07e-hPD-1 cell proliferation ratio (%) at 1000 nM,[6],100%
same,M07e cell proliferation activity (%) at 0.46 nM,[7],0.1%
same,M07e cell proliferation activity (%) at 1.4 nM,[7],3.6%
same,M07e cell proliferation activity (%) at 4.1 nM,[7],28.1%
same,M07e cell proliferation activity (%) at 12 nM,[7],41.6%
same,M07e cell proliferation activity (%) at 37 nM,[7],71.7%
same,M07e cell proliferation activity (%) at 111 nM,[7],87.2%
same,M07e cell proliferation activity (%) at 333 nM,[7],89.8%
same,M07e cell proliferation activity (%) at 1000 nM,[7],100%
same,M07e-hPD-1 cell proliferation activity (%) at 0.0001 nM,[8],1%
same,M07e-hPD-1 cell proliferation activity (%) at 0.001 nM,[8],3%
same,M07e-hPD-1 cell proliferation activity (%) at 0.01 nM,[8],28%
same,M07e-hPD-1 cell proliferation activity (%) at 0.1 nM,[8],87%
same,M07e-hPD-1 cell proliferation activity (%) at 1 nM,[8],99%
same,M07e-hPD-1 cell proliferation activity (%) at 10 nM,[8],98%
same,M07e-hPD-1 cell proliferation activity (%) at 100 nM,[8],102%
same,M07e-hPD-1 cell proliferation activity (%) at 1000 nM,[8],100%
same,Kd,[9],19.4 nM
same,koff,[9],0.00182 s⁻¹
same,kon,[9],93700 M⁻¹ s⁻¹
same,M07e-hPD-1 cell proliferation ratio (%) at 0.0001 nM,[10],4%
same,M07e-hPD-1 cell proliferation ratio (%) at 0.001 nM,[10],8.1%
same,M07e-hPD-1 cell proliferation ratio (%) at 0.01 nM,[10],29.3%
same,M07e-hPD-1 cell proliferation ratio (%) at 0.1 nM,[10],99.5%
same,M07e-hPD-1 cell proliferation ratio (%) at 1 nM,[10],112%
same,M07e-hPD-1 cell proliferation ratio (%) at 10 nM,[10],107%
same,M07e-hPD-1 cell proliferation ratio (%) at 100 nM,[10],105%
same,M07e-hPD-1 cell proliferation ratio (%) at 1000 nM,[10],100%
